Reference: patent publication US20190076400A1 (PROTAGONIST THERAPEUTICS, published 2019)
Square brackets hold non-standard residues; d marks the D form. Dmt = Cc1cc(O)cc(C)c1C[C@H](N)C(=O)O; β3hF = N[C@H](CC(=O)O)Cc1ccccc1; Sar = CNCC(=O)O

What was measured:
Test in all cases: cell-based or functional assay
[1] = molecular target: T1, δ-opioid receptor (DOR), Human-ORPD1 (human, UniProt P41143 1-372)
[2] = molecular target: T2, µ-opioid receptor (MOR), Human-ORPM1 (human, UniProt P35372 1-400)
[3] = molecular target: T1, δ-opioid receptor (DOR), Human-ORPD1; remark: listed apart in the source
[4] = molecular target: T2, µ-opioid receptor (MOR), Human-ORPM1; remark: listed apart in the source

T1 sequence (P41143 whole entry, stated change not applied): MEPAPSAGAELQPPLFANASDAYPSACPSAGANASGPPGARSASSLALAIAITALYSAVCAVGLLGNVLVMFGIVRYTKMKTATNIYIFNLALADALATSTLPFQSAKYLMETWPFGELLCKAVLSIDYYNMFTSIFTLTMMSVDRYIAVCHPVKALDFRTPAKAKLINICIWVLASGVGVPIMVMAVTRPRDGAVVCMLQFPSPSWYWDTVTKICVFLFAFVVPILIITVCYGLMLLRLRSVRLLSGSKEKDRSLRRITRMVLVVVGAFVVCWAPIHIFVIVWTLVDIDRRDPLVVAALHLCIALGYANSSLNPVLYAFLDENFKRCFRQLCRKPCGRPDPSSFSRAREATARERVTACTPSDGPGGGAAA
T2 sequence (P35372 whole entry): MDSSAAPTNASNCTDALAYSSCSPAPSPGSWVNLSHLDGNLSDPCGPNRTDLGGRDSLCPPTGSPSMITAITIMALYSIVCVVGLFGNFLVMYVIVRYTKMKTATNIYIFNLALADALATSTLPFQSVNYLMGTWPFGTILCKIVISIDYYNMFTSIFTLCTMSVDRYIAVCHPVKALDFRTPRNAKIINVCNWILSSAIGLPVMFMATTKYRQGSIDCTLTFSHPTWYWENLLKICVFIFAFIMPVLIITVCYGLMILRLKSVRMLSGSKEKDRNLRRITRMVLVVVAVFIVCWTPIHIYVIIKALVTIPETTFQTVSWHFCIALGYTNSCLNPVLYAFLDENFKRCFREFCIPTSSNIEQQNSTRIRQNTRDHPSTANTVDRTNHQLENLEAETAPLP

B1: H-DMT-a-Ala-bhF-Sar-NH2 (peptide)
peptide: H-[Dmt][dA]A[β3hF][Sar]-NH2
SMILES: Cc1cc(O)cc(C)c1C[C@H](N)C(=O)N[C@H](C)C(=O)N[C@@H](C)C(=O)N[C@H](CC(=O)N(C)CC(N)=O)Cc1ccccc1
≤ 1 nM: DOR cAMP (EC50 nM) [1] | MOR cAMP (EC50 nM) [2] | DOR EC50 [3] | MOR EC50 [4]
